Patent US20110158985A1 (published 2011)
Where “and” joins values, the source holds several entries; their conditions need not be identical. Identical values can stand only once. Like-named read-outs stand apart in the source and are kept apart here.

Key:
[1] = molecular target: T1, RSV F glycoprotein (NUF4) (respiratory syncytial virus); test: SPR (BIAcore), mAb vs NUF4 (2:1)
T1 chain 1: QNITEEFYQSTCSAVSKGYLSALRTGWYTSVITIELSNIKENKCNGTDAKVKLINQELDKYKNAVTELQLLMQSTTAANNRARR
T1 chain 2: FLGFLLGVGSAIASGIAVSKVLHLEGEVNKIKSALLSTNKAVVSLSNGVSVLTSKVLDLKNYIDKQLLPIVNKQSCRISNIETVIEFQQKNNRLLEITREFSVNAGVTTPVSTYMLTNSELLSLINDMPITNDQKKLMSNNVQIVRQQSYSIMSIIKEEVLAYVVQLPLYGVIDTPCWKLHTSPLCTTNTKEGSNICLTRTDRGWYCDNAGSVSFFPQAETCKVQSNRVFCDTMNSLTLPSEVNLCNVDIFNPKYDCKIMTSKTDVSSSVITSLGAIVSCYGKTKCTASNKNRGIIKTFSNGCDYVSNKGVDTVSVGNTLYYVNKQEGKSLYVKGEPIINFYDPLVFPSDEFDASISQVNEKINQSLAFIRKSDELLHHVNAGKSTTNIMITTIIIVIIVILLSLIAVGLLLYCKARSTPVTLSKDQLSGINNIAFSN

Bac-F = Bac-F (respiratory syncytial virus); test: SPR (BIAcore), mAb vs Bac-F (1:1)
Chain of Bac-F (respiratory syncytial virus) (P03420 26-524): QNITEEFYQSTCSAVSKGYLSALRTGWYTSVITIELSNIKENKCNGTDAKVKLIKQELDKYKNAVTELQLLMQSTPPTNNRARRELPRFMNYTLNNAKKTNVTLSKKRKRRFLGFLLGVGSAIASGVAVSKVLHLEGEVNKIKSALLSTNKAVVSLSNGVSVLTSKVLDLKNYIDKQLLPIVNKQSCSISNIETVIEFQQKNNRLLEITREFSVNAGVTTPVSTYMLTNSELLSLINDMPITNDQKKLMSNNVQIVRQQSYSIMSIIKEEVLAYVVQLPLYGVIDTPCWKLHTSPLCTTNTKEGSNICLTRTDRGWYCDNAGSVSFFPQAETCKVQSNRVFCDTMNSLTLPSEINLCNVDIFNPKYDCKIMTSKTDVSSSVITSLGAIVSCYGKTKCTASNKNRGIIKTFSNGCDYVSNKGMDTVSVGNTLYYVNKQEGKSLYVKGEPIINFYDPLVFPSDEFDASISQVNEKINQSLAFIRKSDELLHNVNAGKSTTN

[2] = molecular target: T2, F protein of RSV (Long strain) (RSV (Long strain), UniProt P12568 26-574); test: cell-based or functional assay
[3] = molecular target: T1, RSV F glycoprotein (NUF4); test: SPR (BIAcore), mAb vs NUF4 (1:1)
[4] = molecular target: T2, F protein of RSV (Long strain); test: cell-based or functional assay; remark: listed apart in the source
Target sequence in this assay (P12568 26-574): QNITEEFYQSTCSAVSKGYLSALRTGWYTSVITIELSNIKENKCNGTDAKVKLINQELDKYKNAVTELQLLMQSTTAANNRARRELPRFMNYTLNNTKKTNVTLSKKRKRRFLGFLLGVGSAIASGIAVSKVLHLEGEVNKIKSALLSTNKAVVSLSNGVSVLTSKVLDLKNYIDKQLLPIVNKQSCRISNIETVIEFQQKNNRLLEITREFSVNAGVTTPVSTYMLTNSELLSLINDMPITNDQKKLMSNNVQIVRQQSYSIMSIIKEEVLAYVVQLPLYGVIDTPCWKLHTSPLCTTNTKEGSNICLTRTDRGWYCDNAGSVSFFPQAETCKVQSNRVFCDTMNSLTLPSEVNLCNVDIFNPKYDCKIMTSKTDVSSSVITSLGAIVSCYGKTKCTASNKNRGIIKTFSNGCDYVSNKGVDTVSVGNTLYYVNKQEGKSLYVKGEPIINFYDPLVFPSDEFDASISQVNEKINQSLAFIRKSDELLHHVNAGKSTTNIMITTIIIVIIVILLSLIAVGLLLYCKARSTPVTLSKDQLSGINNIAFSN

[5] = molecular target: T3, recombinant C-terminally truncated RSV (A2 strain) F protein (RSV (A2 strain), UniProt P03420 26-524); test: SPR (BIAcore), IgG over immobilised F
T3 construct: extracellular domain; also called truncated F protein; extracellular domain of the F protein from RSV A2

[6] = molecular target: T2, F protein of RSV (Long strain); test: cell-based or functional assay; remark: listed apart in the source
[7] = molecular target: T3, recombinant C-terminally truncated RSV …; test: SPR (BIAcore), Fab over immobilised F
[8] = molecular target: T3, recombinant C-terminally truncated RSV …; test: SPR (BIAcore), Fab over immobilised F; remark: listed apart in the source
Target sequence in this assay (P03420 137-524): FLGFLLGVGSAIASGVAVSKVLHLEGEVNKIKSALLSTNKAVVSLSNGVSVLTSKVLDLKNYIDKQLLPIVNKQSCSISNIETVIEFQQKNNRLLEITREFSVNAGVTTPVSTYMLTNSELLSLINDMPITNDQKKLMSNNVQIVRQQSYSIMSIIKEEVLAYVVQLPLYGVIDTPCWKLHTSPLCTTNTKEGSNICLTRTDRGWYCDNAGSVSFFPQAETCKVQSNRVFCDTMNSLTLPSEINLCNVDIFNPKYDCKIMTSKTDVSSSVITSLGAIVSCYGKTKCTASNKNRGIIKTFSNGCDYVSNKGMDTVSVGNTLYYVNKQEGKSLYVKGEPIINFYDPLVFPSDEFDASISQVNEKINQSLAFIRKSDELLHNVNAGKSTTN

[9] = molecular target: T3, recombinant C-terminally truncated RSV …; test: SPR (BIAcore), Fab over immobilised F; remark: listed apart in the source
Target sequence in this assay (P03420 26-109, chain 1 of 2): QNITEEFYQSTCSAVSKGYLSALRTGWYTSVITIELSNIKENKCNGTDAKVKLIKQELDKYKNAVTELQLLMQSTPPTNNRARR
Target sequence in this assay (P03420 137-524, chain 2 of 2): as the sequence (P03420 137-524) above

murine FcRn = molecular target: T4, murine FcRn (mouse, UniProt P01887 21-119); test: SPR (BIAcore 3000), FcRn over immobilised IgG1, pH 6.0, Scatchard
T4 construct: also called mouse FcRn; muFcRn
T4 sequence: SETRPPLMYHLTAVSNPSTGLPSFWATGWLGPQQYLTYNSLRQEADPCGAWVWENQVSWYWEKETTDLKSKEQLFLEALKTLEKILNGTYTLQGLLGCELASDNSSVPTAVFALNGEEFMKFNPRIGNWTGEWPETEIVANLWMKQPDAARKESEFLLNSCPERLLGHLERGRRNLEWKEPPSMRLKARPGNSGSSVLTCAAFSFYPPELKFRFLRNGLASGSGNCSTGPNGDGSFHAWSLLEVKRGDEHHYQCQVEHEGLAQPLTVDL
T4 sequence (b2m): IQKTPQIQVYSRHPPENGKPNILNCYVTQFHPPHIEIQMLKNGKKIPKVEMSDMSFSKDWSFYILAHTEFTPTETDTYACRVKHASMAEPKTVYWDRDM
Description: IgG1 variants was monitored by surface plasmon resonance detection using a BIAcore 3000 instrument (Pharmacia Biosensor, Uppsala, Sweden). […] The protein concentrations ranged from 3-5 μg/ml in 10 mM sodium acetate, pH 5.0. The activation period was set for 7 minutes at a flow rate of 10 μl/min and the immobilization period was set to between 10 and 20 minutes at a flow rate of 10 μl/min. […] Human and murine FcRn were buffer exchanged against 50 mM PBS buffer pH 6.0 containing 0.05% Tween 20. Dilutions were made in the same buffer. All binding experiments were performed at 25° C. with concentrations ranging from 120 to 1 μg/ml at a flow rate of 5 to 10 μl/min; data were collected for 25 to 50 minutes and three 1-minute pulses of PBS buffer pH 7.2 were used to regenerate the surfaces. FcRn was also flowed over an uncoated cell and the sensorgrams from these blank runs subtracted from those obtained with IgG1-coupled chips. Runs were analyzed using the software BIAevaluation 3.1 (Pharmacia). Association constants (KAs) were determined from Scatchard analysis by measuring the concentration of free reactants and complex at equilibrium after correction for nonspecific binding.

B1: P12f2 IgG (antibody, V domains shown)
VH: QVTLRESGPALVKPTQTLTLTCTFSGFSLSTPGMSVGWIRQPPGKALEWLADIWWDDKKHYNPSLKDRLTISKDTSKNQVVLKVTNMDPADTATYYCARDMIFNFYFDVWGQGTTVTVSS
VL: DIQMTQSPSTLSASVGDRVTITCSLSSRVGYMHWYQQKPGKAPKLLIYDTFYLSSGVPSRFSGSGSGTEFTLTISSLQPDDFATYYCFQGSGYPFTFGGGTKVEIKR
Kd [1]: 0.84 nM
fold in parentheses (palivizumab = 1) [1]: 371 fold
koff [1]: 0.000236 s⁻¹
kon [1]: 282000 M⁻¹ s⁻¹
Kd (Bac-F): 0.31 nM
fold in parentheses (palivizumab = 1) (Bac-F): 13 fold
Microneutralization IC50, IgG [2]: 0.0231 µg/ml and 0.15 nM
Kd [3]: 0.33 nM
fold in parentheses (palivizumab = 1) [3]: 26 fold
koff [3]: 0.000178 s⁻¹
kon [3]: 541000 M⁻¹ s⁻¹
Mean IC50 (Control) [4]: 0.0223 µg/mL
Mean IC50 (Curve) [4]: 0.0231 µg/mL
Kd [5]: 0.314 nM
koff [5]: 0.000128 s⁻¹
kon [5]: 407000 M⁻¹ s⁻¹

B2: S32A Fab (Fab, name in Kabat numbering, V domains shown)
VH: QVTLRESGPALVKPTQTLTLTCTFSGFSLSTAGMSVGWIRQPPGKALEWLADIWWDDKKDYNPSLKSRLTISKDTSKNQVVLKVTNMDPADTATYYCARSMITNWYFDVWGQGTTVTVSS
VL: DIQMTQSPSTLSASVGDRVTITCSASSSVGYMHWYQQKPGKAPKLLIYDTSKLASGVPSRFSGSGSGTEFTLTISSLQPDDFATYYCFQGSGYPFTFGGGTKVEIK
Microneutralization IC50, Fab [6]: 4.85 µg/ml and 97 nM
Kd [7]: 0.47 nM
koff [7]: 9.3e-05 s⁻¹
kon [7]: 196000 M⁻¹ s⁻¹
fold improvement in affinity over 493L1FR Fab [8]: 3 to 7 fold

B3: A17f5 Fab (Fab, V domains shown)
VH: QVTLRESGPALVKPTQTLTLTCTFSGFSLSTAGMSVGWIRQPPGKALEWLADIWWDDKKDYNPSLKDRLTISKDTSKNQVVLKVTNMDPADTATYYCARDMIFNWYFDVWGQGTTVTVSS
VL: DIQMTQSPSTLSASVGDRVTITCSLSSRVGYMHWYQQKPGKAPKLLIYDTFRHTSGVPSRFSGSGSGTEFTLTISSLQPDDFATYYCFQGSGYPFTFGGGTKVEIK
Microneutralization IC50, Fab [2]: 0.106 µg/ml and 2.12 nM
Kd [9]: 0.154 nM
koff [9]: 8.4e-05 s⁻¹
kon [9]: 544000 M⁻¹ s⁻¹
fold improvement in koff (against palivizumab Fab) [8]: 8 fold
fold increase in kon over W100F [8]: 3 fold

B4: P12f4 IgG (antibody, V domains shown)
VH: QVTLRESGPALVKPTQTLTLTCTFSGFSLSTPGMSVGWIRQPPGKALEWLADIWWDGKKHYNPSLKDRLTISKDTSKNQVVLKVTNMDPADTATYYCARDMIFNFYFDVWGQGTTVTVSS
VL: DIQMTQSPSTLSASVGDRVTITCSLSSRVGYMHWYQQKPGKAPKLLIYDTRGLPSGVPSRFSGSGSGTEFTLTISSLQPDDFATYYCFQGSGYPFTFGGGTKVEIKR
Kd [1]: 2.33 nM
fold in parentheses (palivizumab = 1) [1]: 134 fold
koff [1]: 0.000636 s⁻¹
kon [1]: 273000 M⁻¹ s⁻¹
Kd (Bac-F): 0.11 nM
fold in parentheses (palivizumab = 1) (Bac-F): 35 fold
Microneutralization IC50, IgG [2]: 0.242 µg/ml and 0.16 nM
Kd [3]: 0.24 nM
fold in parentheses (palivizumab = 1) [3]: 36 fold
koff [3]: 0.000229 s⁻¹
kon [3]: 943000 M⁻¹ s⁻¹
Mean IC50 (Control) [4]: 0.0235 µg/mL
Mean IC50 (Curve) [4]: 0.0242 µg/mL
Kd [5]: 0.112 nM
koff [5]: 5.55e-05 s⁻¹
kon [5]: 495000 M⁻¹ s⁻¹

B5: AFFY Fab (Fab, name in Kabat numbering, V domains shown)
VH: QVTLRESGPALVKPTQTLTLTCTFSGFSLSTAGMSVGWIRQPPGKALEWLADIWWDDKKDYNPSLKSRLTISKDTSKNQVVLKVTNMDPADTATYYCARSMITNFYFDVWGQGTTVTVSS
VL: DIQMTQSPSTLSASVGDRVTITCSASSSVGYMHWYQQKPGKAPKLLIYDTFKLASGVPSRFSGSGSGTEFTLTISSLQPDDFATYYCFQGSYYPFTFGGGTKVEIK
Microneutralization IC50, Fab [6]: 0.0754 µg/ml and 1.51 nM
Kd [7]: ≤ 0.041 nM
koff [7]: ≤ 5e-06 s⁻¹
kon [7]: 122000 M⁻¹ s⁻¹
fold higher affinity than palivizumab Fab [8]: > 117 fold

B6: PFFF Fab (Fab, name in Kabat numbering, V domains shown)
VH: QVTLRESGPALVKPTQTLTLTCTFSGFSLSTPGMSVGWIRQPPGKALEWLADIWWDDKKDYNPSLKSRLTISKDTSKNQVVLKVTNMDPADTATYYCARSMITNFYFDVWGQGTTVTVSS
VL: DIQMTQSPSTLSASVGDRVTITCSASSSVGYMHWYQQKPGKAPKLLIYDTFKLASGVPSRFSGSGSGTEFTLTISSLQPDDFATYYCFQGSFYPFTFGGGTKVEIK
Kd [7]: ≤ 0.045 nM
koff [7]: ≤ 5e-06 s⁻¹
kon [7]: 110000 M⁻¹ s⁻¹
fold higher affinity than palivizumab Fab [8]: > 117 fold

B7: AFFG Fab (Fab, name in Kabat numbering, V domains shown)
VH: QVTLRESGPALVKPTQTLTLTCTFSGFSLSTAGMSVGWIRQPPGKALEWLADIWWDDKKDYNPSLKSRLTISKDTSKNQVVLKVTNMDPADTATYYCARSMITNFYFDVWGQGTTVTVSS
VL: DIQMTQSPSTLSASVGDRVTITCSASSSVGYMHWYQQKPGKAPKLLIYDTFKLASGVPSRFSGSGSGTEFTLTISSLQPDDFATYYCFQGSGYPFTFGGGTKVEIK
Microneutralization IC50, Fab [6]: 0.249 µg/ml and 4.98 nM
Kd [7]: ≤ 0.038 nM
koff [7]: ≤ 5e-06 s⁻¹
kon [7]: 133000 M⁻¹ s⁻¹
fold higher affinity than palivizumab Fab [8]: > 117 fold

B8: human IgG1 MEDI-493 (palivizumab) H433K/N434F/Y436H (antibody)
heavy: QVTLRESGPALVKPTQTLTLTCTFSGFSLSTSGMSVGWIRQPPGKALEWLADIWWDDKKDYNPSLKSRLTISKDTSKNQVVLKVTNMDPADTATYYCARSMITNWYFDVWGAGTTVTVSSASTKGPSVFPLAPSSKSTSGGTAALGCLVKDYFPEPVTVSWNSGALTSGVHTFPAVLQSSGLYSLSSVVTVPSSSLGTQTYICNVNHKPSNTKVDKRVEPKSCDKTHTCPPCPAPELLGGPSVFLFPPKPKDTLMISRTPEVTCVVVDVSHEDPEVKFNWYVDGVEVHNAKTKPREEQYNSTYRVVSVLTVLHQDWLNGKEYKCKVSNKALPAPIEKTISKAKGQPREPQVYTLPPSREEMTKNQVSLTCLVKGFYPSDIAVEWESNGQPENNYKTTPPVLDSDGSFFLYSKLTVDKSRWQQGNVFSCSVMHEALKFHHTQKSLSLSPGK
light: DIQMTQSPSTLSASVGDRVTITCKCQLSVGYMHWYQQKPGKAPKLLIYDTSKLASGVPSRFSGSGSGTEFTLTISSLQPDDFATYYCFQGSGYPFTFGGGTKLEIKRTVAAPSVFIFPPSDEQLKSGTASVVCLLNNFYPREAKVQWKVDNALQSGNSQESVTEQDSKDSTYSLSSTLTLSKADYEKHKVYACEVTHQGLSSPVTKSFNRGEC
Kd (murine FcRn): 14 nM
ΔΔG (murine FcRn): 1.8 kcal/mol

B9: human IgG1 MEDI-493 (palivizumab) M252Y/T256Q (antibody)
heavy: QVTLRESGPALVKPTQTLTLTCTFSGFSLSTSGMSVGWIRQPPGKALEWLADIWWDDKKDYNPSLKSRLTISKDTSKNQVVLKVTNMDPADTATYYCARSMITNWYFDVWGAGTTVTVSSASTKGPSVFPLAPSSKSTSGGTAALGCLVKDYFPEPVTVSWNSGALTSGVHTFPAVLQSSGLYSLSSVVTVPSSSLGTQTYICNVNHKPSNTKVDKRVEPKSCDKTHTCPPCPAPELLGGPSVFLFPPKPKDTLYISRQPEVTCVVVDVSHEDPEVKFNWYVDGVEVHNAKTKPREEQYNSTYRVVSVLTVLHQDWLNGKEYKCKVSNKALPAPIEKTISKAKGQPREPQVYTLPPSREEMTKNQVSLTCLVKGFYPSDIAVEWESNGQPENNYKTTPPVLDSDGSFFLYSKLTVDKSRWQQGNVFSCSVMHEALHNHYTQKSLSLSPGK
light: DIQMTQSPSTLSASVGDRVTITCKCQLSVGYMHWYQQKPGKAPKLLIYDTSKLASGVPSRFSGSGSGTEFTLTISSLQPDDFATYYCFQGSGYPFTFGGGTKLEIKRTVAAPSVFIFPPSDEQLKSGTASVVCLLNNFYPREAKVQWKVDNALQSGNSQESVTEQDSKDSTYSLSSTLTLSKADYEKHKVYACEVTHQGLSSPVTKSFNRGEC
Kd (murine FcRn): 39 nM
ΔΔG (murine FcRn): 1.1 kcal/mol

B10: human IgG1 MEDI-493 (palivizumab) N434F/Y436H (antibody)
heavy: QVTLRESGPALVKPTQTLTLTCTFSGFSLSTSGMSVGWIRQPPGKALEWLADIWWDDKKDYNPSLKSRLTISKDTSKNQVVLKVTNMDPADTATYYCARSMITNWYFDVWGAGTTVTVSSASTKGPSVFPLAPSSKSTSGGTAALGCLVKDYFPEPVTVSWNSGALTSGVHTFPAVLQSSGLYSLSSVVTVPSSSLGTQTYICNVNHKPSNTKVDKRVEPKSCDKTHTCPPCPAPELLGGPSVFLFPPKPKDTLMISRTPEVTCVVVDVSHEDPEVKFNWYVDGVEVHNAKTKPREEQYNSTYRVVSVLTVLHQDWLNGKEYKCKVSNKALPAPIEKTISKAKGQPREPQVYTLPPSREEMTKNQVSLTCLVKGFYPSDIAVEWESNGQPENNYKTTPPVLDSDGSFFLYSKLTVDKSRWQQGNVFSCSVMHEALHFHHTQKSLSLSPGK
light: DIQMTQSPSTLSASVGDRVTITCKCQLSVGYMHWYQQKPGKAPKLLIYDTSKLASGVPSRFSGSGSGTEFTLTISSLQPDDFATYYCFQGSGYPFTFGGGTKLEIKRTVAAPSVFIFPPSDEQLKSGTASVVCLLNNFYPREAKVQWKVDNALQSGNSQESVTEQDSKDSTYSLSSTLTLSKADYEKHKVYACEVTHQGLSSPVTKSFNRGEC
Kd (murine FcRn): 9 nM
ΔΔG (murine FcRn): 2 kcal/mol

B11: human IgG1 MEDI-493 (palivizumab) M252W (antibody)
heavy: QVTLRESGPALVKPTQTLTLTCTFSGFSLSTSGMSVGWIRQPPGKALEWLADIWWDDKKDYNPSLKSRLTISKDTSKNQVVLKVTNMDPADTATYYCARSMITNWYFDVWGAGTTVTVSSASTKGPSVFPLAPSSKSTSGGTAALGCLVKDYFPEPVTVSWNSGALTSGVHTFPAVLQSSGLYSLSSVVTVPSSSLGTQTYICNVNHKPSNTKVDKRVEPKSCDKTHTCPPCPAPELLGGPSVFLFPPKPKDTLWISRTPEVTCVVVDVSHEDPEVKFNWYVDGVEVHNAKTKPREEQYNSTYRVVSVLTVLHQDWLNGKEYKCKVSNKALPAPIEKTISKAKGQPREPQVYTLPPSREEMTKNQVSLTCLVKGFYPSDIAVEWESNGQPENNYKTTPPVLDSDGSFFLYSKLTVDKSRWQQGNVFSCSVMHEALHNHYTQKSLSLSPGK
light: DIQMTQSPSTLSASVGDRVTITCKCQLSVGYMHWYQQKPGKAPKLLIYDTSKLASGVPSRFSGSGSGTEFTLTISSLQPDDFATYYCFQGSGYPFTFGGGTKLEIKRTVAAPSVFIFPPSDEQLKSGTASVVCLLNNFYPREAKVQWKVDNALQSGNSQESVTEQDSKDSTYSLSSTLTLSKADYEKHKVYACEVTHQGLSSPVTKSFNRGEC
Kd (murine FcRn): 30 nM
ΔΔG (murine FcRn): 1.3 kcal/mol
